# Publication PMC11503520
# Where “and” joins values, the source holds several entries; their conditions need not be identical. Identical values can stand only once.
# Key:
# [1] = target: AAV8 viral protein 3 (VP3) (adeno-associated virus serotype 8); experiment: CE-SDS of purified capsids; full particles (FP) separated by DG-UC, denatured with SDS and mercaptoethanol, 60 °C 3 min; VP components detected at 214 nm; VP3 is the sum of VP3 and VP3 clip
# [2] = target: AAV8 viral protein 3 (VP3) (adeno-associated virus serotype 8); experiment: CE-SDS of purified capsids; empty particles (EP) separated by DG-UC, denatured with SDS and mercaptoethanol, 60 °C 3 min; VP components detected at 214 nm; VP3 is the sum of VP3 and VP3 clip
# [3] = target: AAV8 viral protein 3 (VP3) (adeno-associated virus serotype 8); experiment: CE-SDS of purified capsids; AAV8-H4C1, not separated into EP and FP by DG-UC: ratio of the mixture; VP3 is the sum of VP3 and VP3 clip
# [4] = target: AAV8 viral protein 3 (VP3) (adeno-associated virus serotype 8); experiment: native MS; orbitrap-based CDMS of empty particles (EP) of AAV8-H4C1, AAV8-FIXp and AAV8-FIXp hFIX mini-intron after buffer exchange into 200 mM ammonium acetate; average VP stoichiometry estimated from the mass distribution by assigning integer stoichiometries (0-60 for each VP) and weighted averaging
# [5] = target: AAV8 viral protein 3 (VP3) (adeno-associated virus serotype 8); experiment: native MS; orbitrap-based CDMS of full particles (FP); mass of the genome subtracted from the mass distribution of FP, then VP stoichiometry of the capsid of FP estimated as for EP
substance,measurement,setting,value
AAV8 viral protein 3 (VP3) (natural protein),VP stoichiometry VP1: VP2: VP3 (copies of VP3 in the capsid),[1],46.1 and 47.8
same,VP stoichiometry VP1: VP2: VP3 (copies of VP3 in the capsid),[2],45.4
same,VP stoichiometry VP1: VP2: VP3 (copies of VP3 in the capsid),[3],47
same,VP stoichiometry VP1: VP2: VP3 (copies of VP3 in the capsid),[4],48
same,VP stoichiometry VP1: VP2: VP3 (copies of VP3 in the capsid),[5],51.7 and 44.2 and 51
AAV8 viral protein 1 (VP1) (natural protein),VP stoichiometry VP1: VP2: VP3 (copies of VP1 in the capsid),[1],4.6 and 4.7
same,VP stoichiometry VP1: VP2: VP3 (copies of VP1 in the capsid),[2],4.9 and 5
same,VP stoichiometry VP1: VP2: VP3 (copies of VP1 in the capsid),[3],5.1
same,VP stoichiometry VP1: VP2: VP3 (copies of VP1 in the capsid),[4],2.5 and 2.6
same,VP stoichiometry VP1: VP2: VP3 (copies of VP1 in the capsid),[5],1.7 and 3.4 and 1.8
AAV8 viral protein 2 (VP2) (natural protein),VP stoichiometry VP1: VP2: VP3 (copies of VP2 in the capsid),[1],9.3 and 7.5
same,VP stoichiometry VP1: VP2: VP3 (copies of VP2 in the capsid),[2],9.7 and 9.6
same,VP stoichiometry VP1: VP2: VP3 (copies of VP2 in the capsid),[3],7.8
same,VP stoichiometry VP1: VP2: VP3 (copies of VP2 in the capsid),[4],9.4
same,VP stoichiometry VP1: VP2: VP3 (copies of VP2 in the capsid),[5],6.6 and 12.3 and 7.1
